The values that follow come from publication PMC7113243.

The experiment has as its target GST-tagged ID5 (human) (UniProt Q92793). The experiment is described as follows: BLI; GST-tagged ID5 immobilised on the biosensors; IQGAP1-F 0.1 to 19 uM, twelve concentrations; association and dissociation 60 s each; RT; double referenced against buffer and GST; steady state fitted 1:1. (In BLI a coated tip is dipped into the sample, and binding shifts an interference pattern.)

As a reminder, the Kd is the free concentration of one partner at which half of the binding sites on the other are occupied at equilibrium, for simple one-to-one binding. Low values mean tighter binding, high ones weaker binding. As for “IQGAP1-F, His-tagged IQGAP1 construct (residues 286-592 of IQGAP1) (from UniProt P46940 286-592) (domain or fragment)”, the dissociation constant Kd is 400 nM.
